From patent US20140242075A1

Assays:
C1q (human) [1] = biological target: C1q (human) (UniProt P02745); assay: cell-based or functional assay
C1q (human) [2] = biological target: C1q (human) (UniProt P02745); assay: FACS, C1q titrated on mAb-opsonized Raji cells; Exp. 1
C1q (human) [3] = biological target: C1q (human) (UniProt P02745); assay: FACS, C1q titrated on mAb-opsonized Raji cells; Exp. 3
C1q (human) [4] = biological target: C1q (human) (UniProt P02745); assay: FACS, C1q titrated on mAb-opsonized Daudi cells; Exp. 1
C1q (human) [5] = biological target: C1q (human) (UniProt P02745); assay: C1q ELISA, coated antibody series + 3% human serum; mean
C1q (human) [6] = biological target: C1q (human) (UniProt P02745); assay: FACS, C1q titrated on mAb-opsonized Daudi cells; Exp. 10
C1q (human) [7] = biological target: C1q (human) (UniProt P02745); assay: FACS, C1q titrated on mAb-opsonized Daudi cells; Exp. 11
C1q (human) [8] = biological target: C1q (human) (UniProt P02745); assay: C1q binding ELISA: antibody coated in a dilution series (0.58-10 µg/mL), 3% pooled human serum as source of C1q, rabbit anti-human C1q and swine anti-rabbit IgG-HRP, ABTS, OD 405 nm
C1q (human) [9] = biological target: C1q (human) (UniProt P02745); assay: FACS, C1q titrated on Daudi cells opsonized with the mix; Exp. 6

Sequence of C1q (human) (P02745 23-245 limits assumed, chain 1 of 3): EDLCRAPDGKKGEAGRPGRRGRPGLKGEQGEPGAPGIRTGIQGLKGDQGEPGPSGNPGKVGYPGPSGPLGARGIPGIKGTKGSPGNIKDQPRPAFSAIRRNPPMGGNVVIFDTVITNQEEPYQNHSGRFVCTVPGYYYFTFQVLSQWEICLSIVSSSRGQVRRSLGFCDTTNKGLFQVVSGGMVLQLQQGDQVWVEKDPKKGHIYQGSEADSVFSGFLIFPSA
Sequence of C1q (human) (P02746 28-253 limits assumed, chain 2 of 3, further chain): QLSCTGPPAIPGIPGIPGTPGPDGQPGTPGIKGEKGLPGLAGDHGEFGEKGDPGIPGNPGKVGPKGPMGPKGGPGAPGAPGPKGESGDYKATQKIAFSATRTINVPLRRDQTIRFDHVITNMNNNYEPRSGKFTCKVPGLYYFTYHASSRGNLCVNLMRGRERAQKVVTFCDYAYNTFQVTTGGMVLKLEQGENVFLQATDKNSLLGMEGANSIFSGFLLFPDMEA
Sequence of C1q (human) (P02747 29-245 limits assumed, chain 3 of 3, further chain): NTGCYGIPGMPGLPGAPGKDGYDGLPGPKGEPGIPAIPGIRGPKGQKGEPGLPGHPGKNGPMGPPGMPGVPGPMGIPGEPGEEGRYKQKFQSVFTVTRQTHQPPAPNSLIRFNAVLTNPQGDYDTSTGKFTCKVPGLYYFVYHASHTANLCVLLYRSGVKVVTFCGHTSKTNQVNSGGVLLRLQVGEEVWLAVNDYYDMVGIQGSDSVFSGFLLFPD
Sequence of IgG1-7D8-E345R (antibody) (heavy, form in doubt): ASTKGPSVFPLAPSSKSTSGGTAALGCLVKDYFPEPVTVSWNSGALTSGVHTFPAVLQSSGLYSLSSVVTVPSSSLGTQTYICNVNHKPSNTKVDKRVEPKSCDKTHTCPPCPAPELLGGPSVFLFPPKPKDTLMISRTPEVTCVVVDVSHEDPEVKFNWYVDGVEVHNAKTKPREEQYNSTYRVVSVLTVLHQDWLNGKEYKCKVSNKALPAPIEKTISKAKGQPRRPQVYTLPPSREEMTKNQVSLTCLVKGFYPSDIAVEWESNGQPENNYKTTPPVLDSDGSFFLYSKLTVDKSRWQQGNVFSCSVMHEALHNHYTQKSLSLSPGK

| CH50 for C1q efficacy in a CDC assay on Raji cells (C1q (human) [1]) [µg/mL] | Substance | also measured |
| --- | --- | --- |
| 0.77 | IgG1-7D8-E382R (antibody) |  |
| > 30 | IgG1-7D8-H433A (antibody) |  |
| 0.96 | IgG1-7D8-H435A (antibody) |  |
| > 30 | IgG1-7D8-K322A (antibody) | EC50 calculated from the CDC assay on Daudi cells (antibody concentration resulting in 50% lysis) (C1q (human) [1]): > 30 µg/mL |
| 0.63 | IgG1-7D8-Q311A (antibody) |  |
| 21.2 | IgG1-7D8-N434A (antibody) |  |
| 22.5 | IgG1-7D8-G385D (antibody) |  |
| 0.49 | IgG1-7D8-WT (antibody) | Kd (C1q (human) [2]): 4.8 nM; Kd (C1q (human) [3]): 10.9 nM; Kd (C1q (human) [4]): 7.7 nM; EC50 (C1q (human) [5]): 2.05 µg/mL; Kd (C1q (human) [6]): 11.8 nM; Kd (C1q (human) [7]): 13.3 nM |
| > 30 | IgG1-7D8-H310K (antibody) |  |
| 11.2 | IgG1-7D8-I253A (antibody) |  |
| 0.03 | IgG1-7D8-E345R (antibody) |  |
| > 30 | IgG1-7D8-Y436D (antibody) |  |
| > 30 | IgG1-7D8-I253D/H433A (antibody) |  |
| > 30 | IgG1-7D8-H433D (antibody) |  |
| 0.24 | IgG1-7D8-H435R (antibody) | EC50 (read off the curve) (C1q (human) [8]): 2 µg/mL |
| > 30 | IgG1-7D8-I253D (antibody) |  |
| > 30 | IgG1-7D8-S440K (antibody) |  |
| 16.1 | IgG1-7D8-I253Y (antibody) |  |
| 1.33 | 7D8-K439E + 7D8-S440K mix | Kd (C1q (human) [9]): 3.6 nM |
| 0.09 | IgG1-7D8-K439E/S440K (antibody) |  |
| > 30 | IgG1-7D8-K439E (antibody) |  |
| > 30 | IgG1-7D8-Q438D (antibody) |  |
| 0.16 | IgG1-7D8-H433R (antibody) |  |
